# Test results reported in publication PMC4259101.
# Target: MED14-containing head+middle (H+M+14) complex (human) (UniProt O60244)
# Assay: co-IP
substance,measurement,value
RNA polymerase II (from UniProt P24928;P61218) (complex),percent of input bound,< 75 % of input
